experiment: soluble on expression in E. coli; label from the status in PepcDB or PDB records

| Sequence | soluble on expression in E. coli |
| --- | --- |
| MILTPIRRYGAMILMLLTLVFSSEVLAKTHTTTASQKSHLTKASNKQVSSKQEYSRNSAKSSSLPDLRKYPSGTSRKKAFLRTVMPYITSQNAAITAERNWLISKQYQGQWSPAERARLKDIAKRYKVKWSGNTRKIPWNTLLERVDIIPTSMVATMAAAESGWGTSKLARNNNNLFGMKCMKGRCTNAPGKVKGYSQFSSVKESVSAYVTNLNTHPAYSSFRKSRAQLRKADQEVTATAMIHKLKGYSTKGKSYNNYLFAMYQDNQRLIAAHM | not soluble |
| MIMICPGCSCLCDDIYIKDGKVFNACRRGEEIFAKYNENRAVARVDGKEVDVDTAIEKAIEILKDAKNPAIYGLDTTVVEAQSLAIEVAEKLNGYIDDNSSFCLGELVEAVLKGEIPTTTLDEVRDNAYVLVYWGTNPYHSLSRHMSKYTYYPRGKRRPRGYDEDRYLVVVDVRKSETAKLAKKNAKFIQVESDAELVDSFMKVVDGKAAKYAKEAGAIITEMKKADFNVIFGGLGLKYGLKDLNMFKEMVKKLNEVAKVYFIPAGFHGNMRGFNETLFEKVGYVNKYSFRDGKSGEEFAFTELLKNEKIDAALIVGTDPVYSLPFDVSSKLGKVKTIVIDPRMSFTARIADVVIPSAISGIEAGGTMVRSDGVRVMLEPLEEKEVNDVYILQRIKEGL | not soluble |
| MIMLKEYSLKALQTAINQAMKLDEQMPQKLQKLDGKTLEMVITPLNVNFYIRFKGSEMQLLHRIDGRPDTIIHSNPIGLIRLSLLPTSKARSLFNDKIRISGDIELGQSVKKLFDEIDIDWEGHLAHFTGDVVAHQIGSFVRKGLEFKNQFSTSMQQNITEFLQEELRICPSRNELEDFFAEVDELVLSVDRLQAHINNLMSDDEGN | not soluble |
| MINLQDVSKVYKSKHGDVNAVQNVSLSIKKGEIFGIIGYSGAGKSSLIRLLNGLEKPTSGTVEVAGTKINEVNGRGLRKARHEISMIFQHFNLLWSRTVRDNIMFPLEIAGVKKSERIKRANELIKLVGLEGKEKSYPSQLSGGQKQRVGIARALANNPKVLLCDEATSALDPQTTDSILDLLSDINERLGLTIVLITHEMHVIRKICNRVAVMENGKVVEEGEVLDVFKNPKEQMTKRFVQQVTEPEETKETLQHLLDDTASGKMVQLTFVGESAEQPLITEMIRNFNVSVNILQGKISQTKDGAYGSLFIHIDGDEEEVQNVIRFINDKQVKAEVITNV | not soluble |
| MINNSNDIGFIQDIAGLDKLRQKAVNGDENAGQSALTAAARQFESIFTSMMLKSMRDANSDFKSDLMSSQNEDLYRQMLDEQMASEFSSSGSLGLADMIVAQLSTGQTASEQKGEDGFQEAMRRVEHARKTASERSNEDLVAAVYPLRKTQAVQSTQFDSRHSFVTKLKPYADKAARMLGVDSSLLIAQAALETGWGQKMVKNARGNSNNLFNIKADRSWQGDKVATQTLEYHNNVPVVEKAAFRSYASFDESFNDYVRFLENNPRYTNALDHGGNSERFIHGIHRAGYATDPQYADKVLRVKAQIDQMNLL | not soluble |
| MIPISVLVTNAGTVSFHIKGEYNRDRPSKFSDVFRPVVTWNLTRKCNLKCLHCYINASPEGEDGLTTEEALGLIDEMAEMKIPLIIMSGGEPLMRRDFFELASYARSKGIKLALSTNGTLISESVAKRLKELDFSYVGISLDSYDPEFHDKFRGLNGAFNMTVKGIGNAINVGLNVGLRFTITAKNIHQVDEYMKLALKLGVKRITFYHLSASGRGRELREWMYTLEEYVSFINKMIDYAIKLSGKIEIETTLGQFDGVYIAKKLARNEEELEKYLKFVENSGGCGRKMISIYPNGDVYPCQFIDFYKLGNVREKPLKEIIKNIPDLFINTDKYLKGRYCDKCEYKSACKGGDRARAYYWNEDIYGDDPLCPLKTLHI | not soluble |
| MIPLKYLQAYPASLQDQVRQLIAENRLGEYLERRYPGRHDVQSDKALYAYTMNLKQEHLRNAPGLDKVLYDNKLDVVQRALGLHTAISRVQGGKLKAKKEIRVASLFKDAAPEFLRMIVVHELAHLKESEHNKAFYQLCQYMLPDYHQLEFDLRVYLTWKSLAAALEHHHHHH | not soluble |
| MIPTERRQIILDMVAEKGIVSIAELTERMHVSHMTIRRDLQKLEQQGAVIQVSGGVQSSTRVAHEPSHQIKTELATPQKAAIGKLAASLVQPESCIYLDAGTTTLAIARQLVTMNKLTVVTNDFVIADYLMDNSNCTIIHTGGAVCRENRSCVGEAAATLLRGLMIDQAFISASSWSVRGISTPAEDKVTVKRAVASASRQKILVCDATKYGQVATWLALPLAEFNQIVTDDGLPESAIRALAKVDISLLMAKQ | not soluble |
| MIPVILSGGSGSRLWPLSRKQYPKQFLALTGDDTLFQQTIKRLAFDGMQAPLLVCNKEHRFIVQEQLEAQNLASQAILLEPFGRNTAPAVAIAAMKLVAEGRDELLLILPADHVIEDQRAFQQALALATNAAEKGEMVLFGIPASRPETGYGYIRASADAQLPEGVSRVQSFVEKPDEARAREFVAAGGYYWNSGMFLFRASRYLEELKKHDADIYDTCLLALERSQHDGDLVNIDAATFECCPDNSIDYAVMEKTSRACVVPLSAGWNDVGSWSSIWDVHAKDANGNVTKGDVLVHDSHNCLVHGNGKLVSVIGLEDIVVVETKDAMMIAHKDRVQDVKHVVKDLDAQGRSETQNHCEVYRPWGSYDSVDMGGRFQVKHITVKPGARLSLQMHHHRAEHWIVVSGTAQVTCDDKTFLLTENQSTYIPIASVHRLANPGKIPLEIIEVQSGSYLGEDDIERLEDVYGRTAEPALQVVAGSR | not soluble |
| MIPYRQLVRMSHLAARFVGGADVHVVDPLVDLRNVFEQTDQLKIALECRNLTVDVEKVKNEYDEWFETYQKWKQADKESISQLKKELRAKKDGLLNALALPNLVHHAGKKQTPLLKPSKHAQYLAQQGLMRIDKQNHVVHLVGYPVVVQKMIREQLVDLFPGCQPISPSYFARAAILEALNIDQSTCIPFTDDSSHFPLTYLVGNSLPAITSPFLKTSFGEKNEWPISVQCTGASYTEKKNQVDLGNARQRMKHCALWMSKSAEELEGIINDANVRVGAYLDEGLDLEVKVREVRGSELKNYESQAFVVENRGLSLSRISRIGDYVSKRLNIQYSGSPATEKSEKSDGFVQMVYVETDIDRILARLVDDLIEGKEPPKYIRDAIKKSF | not soluble |
| MIQCEECLCWQHSVCMGLLEESIPEQYICYICRDPPGQRWSAKYRYDKEWLNNGRMCGLSFFKENYSHLNAKKIVSTHHLLADVYGVTEVLHGLQLKIGILKNKHHPDLHLWACSGKRKDQDQIIAGVEKKIAQDTVNREEKKYVQNHKEPPRLPLKMEGTYITSEHSYQKPQSFGQDCKSLADPGSSDDDDVSSLEEEQEFHMRSKNSLQYSAKEHGMPEKNPAEGNTVFVYNDKKGTEDPGDSHLQWQLNLLTHIENVQNEVTSRMDLIEKEVDVLESWLDFTGELEPPDPLARLPQLKRHIKQLLIDMGKVQQIATLCSV | soluble |
| MIQTKQIGLQEVLSAAIKRATDEKILVSFVKQIDWMDPLLFYAAGKRISFENRCYFADPAQHVIFAGIGSVFTIATASRKRFQTARDEWDKVKEKAFVQREKYEFGTGPLLFGGFSFDQEKEKTDLWKEFDDTTFSLPTFLLTVKNEKAWLTMNTFVSATDCAETLYNEIVSLEEKIFEESKCALEGSKLTVTSKVEVDPKGWMKAIEKVQDEMKQGNVQKVVLARELKVEMDHHIDSALVLEALRIGQPDCYVFSFDYKGACFLGATPERLIRKEDEKFTSMCLAGSTSHGQSIEESKRNSNALLHDEKNLAEHGYVVNMIRSVLNEHCEFVNIPESPGLLTTKNLIHLYTPVEAKGDASLLTMVEELHPTPALGGTPRLEAMKLIRDVELLDRGLYGAPIGWIDDEGNGEFAVALRCGLLNGEKASLFAGCGIVIDSVPQLEYEETSLKFRPMLGALEELMK | not soluble |
| MIRFIIPLMDCARLYGRPVQFKTERTDINSLMFGLPKLPSVDYFAEEEIAHLMTQEFNPLKEKDTDDTMALTMSRFSSYLQERMTKVSKRNTELNFRTFSDVMGMYNTTRDHSKLNCMSDKDNSVKEFSLSDKSNVSSETTNMMNQLQVNAHEYKSSMCERPIVASTSPIA | not soluble |
| MIRKHSATLHGHRTSISLEDAFWDELKIIAERRKVSFAALLAEIDDSRPADSNLSSSLRVYVLNWLKTR | not soluble |
| MIRNPKIYIIILNYNAYEDTLECVKSIGNIDYDNYELVLVDNSSTDDSYVKLKESLPSYNIIKSKENLGYANGNNIGIKYALENGADYICILNNDVVVEKDFLNKLVDKIIEKEDVGIVGSCICDYYRREIIQGMGAHINLYFAAARRYFKGKNYNEIEKKDIFVDYLEGACFLVKSEVFEKIGLIPENYFLFFEETEFCTRAINAGYKIMCIYESKVYHKGSATINKFGSLSYAYLNRNRVIFVRRNSKWYQKIIFAIYIFIEAFGRIVIRKEPLTLFKYILGGFKSNKESIDVIDVKSYVKLEHHHHHH | not soluble |
| MIRQSVFLLAAIGATVFAQNDSFDLVDANNDGKLSEKELITFMRKRGRPDGQEYFQRFDLDRNGHLDISEFVPLVYEMSRRPVDMDYEFFKKMDLNDDGIVDKAEVEKIRKDNNDRIIDGILSIADTNRDGQLTYAEFKNHLSSGAKSLSPAEEQRNQALQLLSFIDANGDNKLDQLELYTFSQKTSTNKVTKSDVQQIFAMLDKNQDGYLTENELLQLAQQFSTIGNVRSTIPKV | not soluble |
| MISICLVNTYDKLKKHEIHLRSIARAAPLCYAFNFHLALLDFPFWRSEKEVAEEVANYTTIGEGGKYLLYLAESGKLHLIDKIPAHFGEVVATTSKPDPDKVVNPDTLAAFKSATFLIGLGRRGLPREMLKSAKYHLDVTRKGVSLETCSAIGAIAMLLAVKVVG | not soluble |
| MISIDPQFIKNFSKKVKQFDKFSLFVHVNPDFDAFGSAFAFKTFLNTFFSEKKAYVMGSYNINADGRELFPFEQTDINDDFVKESLAIIFDTSNQERVLTQKHKLAKETVRIDHHPRTEKFADMEWIDSSFSATAEMIGYLILQMGYKLNDEIASYLYAGIITDTQRFWGPTTTPQTFALTAKLMETGFNRNKVHDAVYLKPLLEHKYFSYVLSKAKITKNGLAYALIKKGAYKHFGVVSPLPMVHALNNIKGVKIWTTVYFNESIKKWIGSIRSRNIPINNFAQMFNGGGHKYAAAFVLDEKNQFMKLVQIMDDFLAKQNENS | not soluble |
| MISLFSPCHLSAALLISALSIVPTNAAPSPVSSPFTVNATVLTGCVLGGGATDSSNFGSINFGNITSLATAINATSGLNAGTITIQCNGNPSVTLALNSGANMTGNISAGRHLLNSSTGEYLLYQIYQNSPRTLIWGDGSNGGATQVIATDGTLQQVILYAQLFASNTQPTAGVYLDTLLVTVTY | not soluble |
| MITLHTNFGDIKIQLNFEKAPVTSANFEQYCREGFYDNTLFHRVIDGFMIQGGGMTSGLREKETRDPIRNEANNGLSNKVGTIAMARTMDPHSASSQFFINVNNNTFLDFRSESRDGWGYCVFGEVVEGMDIVNKIKGVSTGSYGMHQDVPLEEVVITGTTIEA | not soluble |
| MIVHVVKRGETLWQLAQRYGVPLERIVAANELSDPNRLAVGQALVIPVPYRYHTVRTGETLWQIARQYGVAVEAIIQANRITNPSLLYPGTTLFIPARIHTVRSGETLAQIASFYGVTVQQLIEVNDITDPNRIVPGQRLIIPPAKPLIEVNAFTVDQGEKGAEQVREVGRHLTYAAPFAYTIRADGGLNPINDTAFIQAAYAARVVPMMTITNFTYQDPGSRLAQMILADVALQTRLLDNVIQVMRAKGYRTLNVDFENVYPSDRKRYNEFLQRAANRLHAEGYVLSTSLAPKISAEQKGLLYEAHDYPAHGRIADFVVLMTYEWGYRFGPPQAISPVNQIRRVLDYAVTAIPRSKIMMGFQIYARDWVLPHVQGQEAETFSPKEALERAVRYGASIQYDAAAASPFYRYTDEQGRQHEVWFEDARSALAKFELVKEYGLRGISYWVLGYPYPENWVLLEDNFRIRKRG | not soluble |

From the DeepSol protein solubility set
